Measurements published in patent US20220024982A1 (Bicycle, published 2022).
Numbered stars: 1 amine (or outer) side, 2 acyl side, 3 side chain; on linkers, the order of the positions; unused ones are H or OH. Bridge positions count the residues as written; N and C are the ends. Square brackets hold non-standard residues; d marks the D form. Ends that are not written are not given here. TATA = O=C(CC[*:1])N1CN(C(=O)CC[*:2])CN(C(=O)CC[*:3])C1; fluorescein = fluorescein (fluorescent label, [FI]); 2Nal = N[C@@H](Cc1ccc2ccccc2c1)C(=O)O; TBMB = c1c(C[*:1])cc(C[*:3])cc1C[*:2]; hArg = N=C(N)NCCCC[C@H](N)C(=O)O; Tle = CC(C)(C)[C@H](N)C(=O)O; Sar = CNCC(=O)O

Tests used:
[1] = target: T1, MT1-MMP Hemopexin domain (PEX) (UniProt P50281 319-511); assay: FP competition vs tracer 17-69-07-N040
T1 construct: domain: Hemopexin domain (PEX); Target of the fluorescence polarisation assays; also called hemopexin of MT1-MMP; MMP14
Source text: (§1) Here, a pre-formed complex of PEX with the fluorescent PEX-binding tracer is titrated with free, non-fluoresceinated bicyclic peptide. Since all 17-69-based peptides are expected to bind at the same site, the titrant will displace the fluorescent tracer from PEX. Dissociation of the complex can be measured quantitatively, and the Kd of the competitor (titrant) to the target protein determined. The advantage of the competition method is that the affinities of non-fluoresceinated bicyclic peptides can be determined accurately and rapidly.
(§2) Subsequently, the non-fluorescent competitor bicyclic peptide (usually just the bicycle core sequence) is titrated, such that it displaces the fluorescent tracer from the target protein. The displacement of the tracer is measured and associated with a drop in fluorescence polarisation. The drop in fluorescence polarisation is proportional to the fraction of target protein bound with the non-fluorescent titrant, and thus is a measure of the affinity of titrant to target protein.
(§3) The raw data is fit to the analytical solution of the cubic equation that describes the equilibria between fluorescent tracer, titrant, and binding protein. The fit requires the value of the affinity of fluorescent tracer to the target protein, which can be determined separately by direct binding FP experiments (see previous section).

[2] = target: T1, MT1-MMP Hemopexin domain (PEX); assay: FP competition vs tracer 17-69-07-N041
Source text: as §1, §2, §3

[3] = target: T1, MT1-MMP Hemopexin domain (PEX); assay: FP direct binding
[4] = target: T1, MT1-MMP Hemopexin domain (PEX); assay: FP competition vs tracer 17-88-N006
Protocol: as §2, §3

[5] = target: T2, human MT1 MMP14 protein, hemopexin domain (obtained from Merck Millipore) (human, UniProt P50281 319-511, limits assumed, randomly biotinylated (EZ-Link Sulfo-NHS-LC-LC-Biotin)); assay: SPR, biotinylated target on streptavidin chip
T2 construct: domain: hemopexin domain; Target of the SPR assay, captured on streptavidin; also called biotinylated MT1 MMP14
Protocol: Streptavidin was immobilized on the chip using standard amine-coupling chemistry at 25° C. with HBS-N (10 mM HEPES, 0.15 M NaCl, pH 7.4) as the running buffer. […] Buffer was changed to PBS/0.05% Tween 20 and a dilution series of the peptides was prepared in this buffer with a final DMSO concentration of 0.5%. […] Data were corrected for DMSO excluded volume effects. All data were double-referenced for blank injections and reference surface using standard processing procedures and data processing and kinetic fitting were performed using Scrubber software, version 2.0c (BioLogic Software).

[6] = target: T1, MT1-MMP Hemopexin domain (PEX); assay: FP competition, plate 1, tracer not named

Work on ACADECRLLFPKTCA (linker 2-6-14 via TATA) [17-120-05] yielded a Kd [1] of over 280 nM.

Work on ACEEQFYPCTHALYTCA (linker 2-9-16 via TATA) [17-126-02] yielded a Kd [2] of over 282 nM.

For ACEEAFYPCHHPLYRCA (linker 2-9-16 via TATA (inferred)) [17-126-25], the Kd [1] was over 139 nM.

For fluorescein-G[Sar][Sar][Sar][Sar][Sar]ACYNEFACEDFYDICA (linker 8-14-21 via TBMB, fluorescent tracer) [17-69-07-N041], the Kd [3] was 3.4 nM.

In the case of ACDSPEECFYPLECA (linker 2-8-14 via TATA) [17-122-04], the Kd [1] is reported as over 2100 nM.

fluorescein-G[Sar][Sar][Sar][Sar][Sar]ACMNQFGCEDFYDICA (linker 8-14-21 via TBMB, fluorescent tracer) [17-69-12-N004] showed a Kd [3] of 1 nM.

Work on ACLEPDECFYPMECA (linker 2-8-14 via TATA) [17-122-02] yielded a Kd [1] of over 929 nM.

For ACYEECRLLFPRTCA (linker 2-6-14 via TATA) [17-120-21], the Kd [4] was over 82.8 nM.

With ACPYSWETCLFGDYRCA[Sar][Sar][Sar][Sar][Sar][Sar]K(fluorescein) (linker 2-9-16 via TBMB) [17-88-N006] the Kd [3] was 14 nM.

Work on ACPYDWATCLFGDYRCA[Sar][Sar][Sar][Sar][Sar][Sar]K(fluorescein) (linker 2-9-16 via TBMB) [17-88-226-N002] yielded a Kd [3] of 50 nM.

ACYNEFGCEDFYDICA[Sar][Sar][Sar][Sar][Sar][Sar]K(fluorescein) (linker 2-8-15 via TBMB, fluorescent tracer) [17-69-07-N040] showed a Kd [3] of 0.52 nM.

For ACEEEFYPCGHPLYVCA (linker 2-9-16 via TATA) [17-126-01], the Kd [2] was over 316 nM.

With ACKEPQECFYPLKCA (linker 2-8-14 via TATA) [17-122-03] the Kd [1] was over 378 nM.

Work on Ac-LPPCV[hArg]ECALL[2Nal]P[hArg]TC (linker 4-8-16 via TATA) [BCY10223] yielded a Kd [5] of 400 nM.

ACVEEFYPCDHPLYSCA (linker 2-9-16 via TATA) [17-126-03] showed a Kd [2] of over 430 nM.

Ac-LPPC[Tle][hArg]ECALLFP[hArg]TC (linker 4-8-16 via TATA) [BCY11149] gave a Ki [6] of 80 nM.

Work on ACDEQFYPCNHRLNTCA (linker 2-9-16 via TATA (inferred)) [17-126-24] yielded a Kd [1] of 200 nM.
